Results: publication PMC4786772, “Manipulation of prenylation reactions by structure-based engineering of bacterial indolactam prenyltransferases” (Nature Communications, 2016)

Key:
Assay in all cases: purified protein
Conditions in all cases: 150 μM (−)-indolactam V, 42 °C, 5 min, Tris-HCl pH 7.0, 150 mM NaCl
[1] = tested on: CC(C)=CCC/C(C)=C/CC/C(C)=C/CO[P@@](=O)(O)OP(=O)(O)O
[2] = tested on: CC(C)=CCC/C(C)=C/COP(=O)(O)OP(=O)(O)O
[3] = tested on: CC(C)=CCOP(=O)(O)OP(=O)(O)O

MpnD (Marinactinospora thermotolerans)
Km [1]: 95.5 ± 17.1 µM
kcat [1]: 0.0867 ± 0.00833 s⁻¹
kcat/Km [1]: 900 M⁻¹ s⁻¹
Km [2]: 26.0 ± 4.9 µM
kcat [2]: 0.0433 ± 0.00333 s⁻¹
kcat/Km [2]: 1700 M⁻¹ s⁻¹
Km [3]: 4.8 ± 1.0 µM
kcat [3]: 0.882 ± 0.0433 s⁻¹
kcat/Km [3]: 183000 M⁻¹ s⁻¹

MpnD (Marinactinospora thermotolerans; M159A)
Km [1]: 48.7 ± 14.6 µM
kcat [1]: 0.167 ± 0.015 s⁻¹
kcat/Km [1]: 3400 M⁻¹ s⁻¹
Km [2]: 9.1 ± 1.2 µM
kcat [2]: 0.0717 ± 0.00333 s⁻¹
kcat/Km [2]: 7900 M⁻¹ s⁻¹
Km [3]: 24.2 ± 4.2 µM
kcat [3]: 0.505 ± 0.0333 s⁻¹
kcat/Km [3]: 20900 M⁻¹ s⁻¹

MpnD (Marinactinospora thermotolerans; Y80W)
Km [2]: 9.7 ± 1.1 µM
kcat [2]: 0.09 ± 0.00167 s⁻¹
kcat/Km [2]: 9300 M⁻¹ s⁻¹
Km [3]: 15.3 ± 2.5 µM
kcat [3]: 0.118 ± 0.005 s⁻¹
kcat/Km [3]: 7700 M⁻¹ s⁻¹

TleC (Streptomyces blastmyceticus)
Km [2]: 9.5 ± 3.3 µM
kcat [2]: 0.25 ± 0.025 s⁻¹
kcat/Km [2]: 26400 M⁻¹ s⁻¹
Km [3]: 21.7 ± 4.3 µM
kcat [3]: 0.025 ± 0.00167 s⁻¹
kcat/Km [3]: 1100 M⁻¹ s⁻¹

TleC (Streptomyces blastmyceticus; A173M)
Km [3]: 24.6 ± 3.0 µM
kcat [3]: 0.065 ± 0.00167 s⁻¹
kcat/Km [3]: 2600 M⁻¹ s⁻¹

TleC (Streptomyces blastmyceticus; A173M/F170W/W97Y)
Km [3]: 46.6 ± 8.2 µM
kcat [3]: 0.0433 ± 0.00333 s⁻¹
kcat/Km [3]: 900 M⁻¹ s⁻¹

TleC (Streptomyces blastmyceticus; A173M/W97Y)
Km [3]: 41.2 ± 5.6 µM
kcat [3]: 0.0333 ± 0.00167 s⁻¹
kcat/Km [3]: 800 M⁻¹ s⁻¹

TleC (Streptomyces blastmyceticus; W97Y)
Km [2]: 7.7 ± 1.0 µM
kcat [2]: 0.168 ± 0.00667 s⁻¹
kcat/Km [2]: 21800 M⁻¹ s⁻¹
Km [3]: 11.3 ± 1.6 µM
kcat [3]: 0.402 ± 0.0133 s⁻¹
kcat/Km [3]: 35500 M⁻¹ s⁻¹
